The results in this text go back to a protein production outcome set (Wang et al. 2014).

This series can be described thus: label from the status in PepcDB records.
Consider “MVEPGVAKLTTYASKQATDMGAIYVNSKGDRIVNESNVYTTFRNAILKQADKVAYLVMDERTWKKVYDLLILHDFTPEEIKSFFENKGKRPVFVKGSLESAAEQAGIVVDELVQTVKNYQGYVQDGHDHDFGRDPKYLHQFEGETFYIIEQRLEHHHHHH”, for which the protein production entry is listed as “failed”.
The entry for “MVESKTKFEEIRKWVSDHKLRTVGCLWLSGITGSIAYNWSQPAMKTSVKIIHARLHAQALTLAALAGAAVVEYYDHKTEATNRYPKFLPPENLSHKD” is “failed”; for “MVFMANKKKTKGKKTRRPTKAEIERQRAIQRMITALVLTIILFFGIIRLGIFGITVYNVIRFMVGSLAYLFIAATLIYLYFFKWLRKKDSLVAGFLIASLGLLIEWHAYLFSMPILKDKEILRSTARLIVSDLMQFKITVFAGGGMLGALIYKPIAFLFSNIGAYMIGVLFIILGLFLMSSLEVYDIVEFIRAFKNKVAEKHEQNKKERFAKREMKKAIAEQERIERQKAEEEAYLASVNVDPETGEILEDQAEDNLDDALPPEVSETSTPVFEPEILAYETSPQNDPLPVEPTIYLEDYDSPIPNMRENDEEMVYDLDDDVDDSDIENVDFTPKTTLVYKLPTIDLFAPDKPKNQSKEKDLVRKNIRVLEETFRSFGIDVKVERAEIGPSVTKYEIKPAVGVRVNRISNLSDDLALALAAKDVRIETPIPGKSLIGIEVPNSEIATVSFRELWEQSDANPENLLEVPLGKAVNGNARSFNLARMPHLLVAGSTGSGKSVAVNGIISSILMKARPDQVKFMMIDPKMVELSVYNDIPHLLIPVVTNPRKASKALQKVVDEMENRYELFSKIGVRNIAGYNTKVEEFNASSEQKQIPLPLIVVIVDELADLMMVASKEVEDAIIRLGQKARAAGIHMILATQRPSVDVISGLIKANVPSRIAFAVSSGTDSRTILDENGAEKLLGRGDMLFKPIDENHPVRLQGSFISDDDVERIVGFIKDQAEADYDDAFDPGEVSETDNGSGGGGGVPESDPLFEEAKGLVLETQKASASMIQRRLSVGFNRATRLMEELEAAGVIGPAEGTKPRKVLMTPTPSE” it is “failed”.
The value for “MVGERMWWWSSSSTKLRSNLERFLRGITPKPPSFSLSQSCKNDLNSLWIHENKDEIEYFRLSDLWDCFDEPSAYGLGSKVDLNNGESVMQYYVPYLSAIQIYTNKSTAISRIHSDVVDCESECWSDDSEIEKLSRSMSSGSSKIWDSVSDDSGYEIDGTSSLMRDKLGSIDFQYFESVKPHLRVPLTAKVNELAEKYPGLSTLRSVDLSPASWLAIAWYPIYHIPSRKTDKDLSTCFLSYHTLSSAFQGNLIEGDDEINETMKEETLCFDEGPVTKSIPLAPFGLVSYKLQGDLWRNQECGDQGRIVYLRSAADSWLKQLNVQDHHDHSFFSMNMSL” was “failed”.
The entry for “MVGKSKSPEFNFEDGMAYFDAVKVALQDTEPEKYQEFVRIFIDYTANRFGFETLSASLQELLRDHANLCHGSNVLLPFRLQTAIPPEASAEFHINKVVGRSVPPAVAVPTMDDATSYLNAVKEAFHDEPAKYMEITKLLTDLKARRINAASVIARMEELLKDHLNLLLGFCVFLSPTRRFITKLKARFLGDGSQVVDSVLQILRMHSEGNKSKDEASQEVRALIQGHEDLLMELSEIFSDP” is “failed”; for “MVGRDNVENTAMGEALSPSQISGRVDAVWGNPMAWEAAGWQWERLPAIRRMVNRHVTGDEAIDPLSWFFQRVAKDQTLPVRRALVLACGAGGLERQLISQGWVSEVVAVDLSPGALAAARDAARQAGISGIDYRQADMNALDVEGPFDLAVGSSALHHCENLEGIFAVVRRVLVPGGWFFLNDYIGPNRLQYDAAQVLEVNRLLQCLPDPLVMNAAGFSRRGFRPASLAEVIAFDPSEAPRSADILRVMGEALEVETVRPYGGNLLYLVLSNLAQNFDPAQSGDAAAPDYLRLLIEASDHWRATRHGQDHFAAAIARQPIS” it is “failed”.
With “MVGRRVSPALTKDDAHSYIIAVKETFHDEPTKYQEFIKLLNGVCDHRVDKYSVIARVEELMKDHQDLLLGFSVFLPPVSVEDFINKLKSKFVHLQTRFQSLDTHVVGAIRGLMKMFKEGKMSVKEVQEEVIDVLFYHEDLIEDFLRFFTKNPVSTASLLLQL”, the protein production result was “failed”.
The entry for “MVGVRMTKKVLIVEDNELNMKLFHDLLEAQGYETLQTREGLSALSIARENKPDLILMDIQLPEISGLEVTKWLKEDDDLAHIPVVAVTAFAMKGDEERIREGGCEAYISKPISVVHFLETIKRLLERQPA” is “not failed”; for “MVHTPLNFKFSEKREEWNLRFCRNVGVSIVELVTADASSAYVRGLMAVNGSKVYSILPFISIDAEKAKKAKFPEDRMSGVRGKVIPSVLPEIKGETILDIGCGFGTLTMELAKNNPESQVYGIDLHDSLTGQAEMNAEVLGLPNVEFRTGSAYALPFEKDSIDAVTCFLMLHHLEDIKFALFEIKRVLKKGGSLTAVEPLAHQHHHGPQLSEAEWKELFEEAGFGTETENMEGAVVLRAVKRELEHHHHHH” it is “failed”; for “MVIDQTDPIYVLFHDEEWGVPVRDDKKLFELLVFSQALAEFSWPSILRRRDDFRKLFEEFDPSAIAQFTEKRLMSLRVNGCLILSEQKLRAIVENAKSVLKVKQEFGSFSNYCWRFVNHKPLRNGYRYGRQVPVKSPKAEYISKDMMQRGFRCVGPTVMYSFLQASGIVNDHLTACFRYQECNVETERETKSHETETKLDLHSPLLV” it is “failed”.
The value for “MVINRKIIGSYTQRQIAALLTDEPPSEQPKCNVRVVEMTYTTVGVVGEPARASGVVLVPDGPQCPGPYPVLGWGSATETLRSAEQAKGIISANGDDPLVTRLASQGYVVVSTDYLGLGGSNYPYHPYLHANSEASALIDALRASRTVLQHLNTPLSNKLMLSGFSQGGHTAMATQREIEAHLSNEFSLVASAPISGPYALSQTFLDTWTGRNEVGENNFAIILGTYAIVGMQRTYRNIYSDPSQVFQDPWANQVEALFPGKKDTTDLFLGDDLPAIDQIKEYFQPGFYSDFPKNRKNPFFVDLVRNDLLNWAPRTPTLLCGSDNDTVVPFLKNTNLAIASFKKRGSRQVSVVDIGTGNRKDNSALTHLSSEELCIVKVRNEFLEKKR” was “failed”; that for “MVIRGTNNDDNLIGTTGNDIIEGLGGNDRFEGGRGNDTLTGGTGNDVFNLEQQQDNDVVTDFVRGQDKIDLRNLNINDWATLQLLISNDGQDNALITTFFNGSQSQIKLLNINPNLLQASDFIFNTVNLNQTIDGTNFADQLFGGLGNDTLRGFNGNDVLFGEQGDDRFEGGRGNDTFYGGAGNDVFNLEQQQDNDVVTDFVRGQDKIDLRNLNINDWATLQLLISNDGQDNALITTFFNGSQSQIKLLNINPNLLQASDFIFNTVNLNQTIDGTNFADQLFGGLGNDTLRGFFGNDVLFGEQGDDRFEGGRGNDTFYGGAGNDVFNLEQLQDNDVVTDFVRGQDKIDLRNLNINDWATLQLLISNDGQNNALITTFFNGDQSQIKLLNINPNLLQASDFIFNTVNLNQTIDGTNSPDQLFGGLGNDTLRGFFGNDVLFGEQGDDRFEGGRGNDTFYGGAGNDVFNLEQLQDNDVVTDFVQGQDKIDIRNLNINDWATLQLLISNDGQDNALITTFFNGDQSQIKLLNINPNLLQASDFIFNTVNLNQTIDGTNSPDQLFGGLGNDTLRGFFGNDVLFGEQGDDRFEGGRGNDTFYGGAGNDVFNLEQLQDNDVVIDFVQGQDKIDIRSLNISDWATLQLLISNDGQNNALITTFFNGDQSQIKLNNINPNLLQASDFIFNTNTVNLNQTIDGTNSPDQLFGGLGNDTLRGFFGNDVLFGEQGDDRFEGGAGNDTFYGGTGNDIAVYLGTRSQYQVTSNGGVFTVTDTVANRDGVDTLREVEQIQFSDQTITIGNTSPTITLAVSPASVTEDGTPNLIYTFTRTGSTTNALTVNYSVAGTATLNTDYAQTGAASFTATTGTITFAVGASTAILTINPTADTTVESNETVALTLASGTGYTVGTTTAVTGTITNDDFPSITLAVSPASVTEDGTPNLIYTFTRTGSTTNALTINFGVAGTATLNTDYAQSGAASFTATTGTITFAAGASTAILTINPTADTTVESNETVALTLASGTGYTVGTTTAVTGTITNDDTLPTGITINLSGSQTIVEGNSSPQNVTYTVTLSQASSQIITVQYATANGTATAGSDYTSTTGTLTFNPGETSKVINIPILNDSVNEANETFTLRLTSPTNATLGTTNTVTTTITDTLSASVTTTLPTNVENLTLTGTAAINGTGNAGNNILTGNSGNNILSGGAGNDTYAFVANAALGTDTITETATGGIDTIDFNGSTATVRVNLGVTTSQTVNNNLKLILSANNVIENATGGTGNDRLTGNALNNILAGGNGNDQLQGLAGNDTLWGGLGDDILTGGIGQDKYLFQSSGVFSSSLGVDYISQFDVGQDQIVLSKATFNAVTNSAGQALTDFAVVSDDEFVNASSARIVYSQGSGSLFYNRDGNVLGTSTVFEFARLGNPDITLSSSDFSLIA” was “failed”.
Regarding “MVIRVTERRVKLASIISYDFLFLVLLSGLLNLIITIFRERLLYVLSSFFQYIVSNPSVALGDALGFIFVLQALLLGLFIGGIVILSISFTINLTRIRSEYEEGVPLSTILRSRIITSSRLGIIANWISERSKRYINASADLESPTEVGVRYVAYFLVSLLVVIPVSLALSIALLSPLPFLLIFFPLTFIFYPEQKYKSRAREIRDDIQDEIPFFVTLITIINASGTTIYEGMRKILQFPIFKAMKKEALLIIRDIEFFGKSPLDALEHRSRLTLNRDYSWFLAGYSSIIRSGGDIEAYLFQKAREFLNWLQFRWRFYSERTSFLGELIVILFLIFPMFLIALAFFTSGAVISFLLIIPILFGTILYTITANNRPRYMDSIGLTKLQLLIGFIAALLTAGVIEIFLDEIYYAIGLGLLSFSLASTIFMYNQIREINDVENSLPQFLRDITEFRKIGYDLSRAIKTLAEEKRYRREFNRVLNEITKQDSMGIPITRAKINTRSWLGKFSLTTVQILIESGAVRPDLLEYLTEFTLNFIQSKKEAFSRMRAYQVLGILTPLLLIATILIAIVIIDSFTIVTLPTNTVGLPQFPNIISQFILSPVILAEMFIFILMSTFAIGLLVTKALYGTVQYMIMPAIGLTLAVLSIHFFSVIEPIILKFFSI”, the protein production result is given as “failed”.
The entry for “MVKDKNDVGPKTVAILGAGGKMGARITRKIHDSAHHLAAIEIAPEGRDRLQGMGIPLTDGDGWIDEADVVVLALPDNIIEKVAEDIVPRVRPGTIVLILDAAAPYAGVMPERADITYFIGHPCHPPLFNDETDPAARTDYHGGIAKQAIVCALMQGPEEHYAIGADICETMWSPVTRTHRVTTEQLAILEPGLSEMVAMPFVETMVHAVDECADRYGIDRQAALDFMIGHLNVEIAMWFGYSPKVPSDAALRLMEFAKDIVVKEDWREALNPAKVKQAAELIAGK” is “not failed”.
The value for “MVKDLSDMSLKELWQLFPIFLVEHKEEWEDWYEEEKERLLHLLPSQSIKSISHIGSTAVPDIWAKNIVDILLEVPEKEDLQDFKKRLLDAGYLLMSEGEKRLSFNKGYTKDGFAEKVFHLHLRYQGDNDELYFRDYLREYPEVAKDYERLKLGLWEKYEHNRDAYTDAKSDFIRKYTQKAKKNDKGKDN” was “not failed”; that for “MVKKIVNPINIIVVVMHISVSIYALFVNVPFKAELFKDNVVLCIYVITFYIGFLLLGDFFRERKIFRKRNDGNRESKTISIIGGIFLFAGILLGMSSVMTIYNIKVDASEYSIGRIIFDTIKVDNVKRESTTSKPQGIFVQRSITTIRTEEVDGISVKSNKRVEFKHCYLYGWQVIEGKIYNVKYLPTTHRILSIEEKK” was “failed”.
